Measured values from IntAct's records for PubMed 28712572.

Biological target: gbrap_human GABARAP (UniProt O95166)
Sequence (O95166 whole entry): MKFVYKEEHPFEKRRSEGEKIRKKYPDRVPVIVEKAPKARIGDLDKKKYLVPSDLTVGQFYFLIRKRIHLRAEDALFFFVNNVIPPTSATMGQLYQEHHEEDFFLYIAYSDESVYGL

| Substance | effect of a mutation on the interaction |
| --- | --- |
| Pericentriolar material 1 protein (Homo sapiens), Q15154 D1959F | with no effect |
| Pericentriolar material 1 protein (Homo sapiens), Q15154 D1959G | with no effect |
| Pericentriolar material 1 protein (Homo sapiens), Q15154 D1959L | with no effect |
| Pericentriolar material 1 protein (Homo sapiens), Q15154 D1959N | with no effect |
| Pericentriolar material 1 protein (Homo sapiens), Q15154 D1959S | with no effect |
| Pericentriolar material 1 protein (Homo sapiens), Q15154 D1959V | decreasing interaction strength |
| Pericentriolar material 1 protein (Homo sapiens), Q15154 D1959Y | with no effect |
| Pericentriolar material 1 protein (Homo sapiens), Q15154 D1962F | with no effect |
| Pericentriolar material 1 protein (Homo sapiens), Q15154 D1962G | with no effect |
| Pericentriolar material 1 protein (Homo sapiens), Q15154 D1962I | disrupting interaction strength |
| Pericentriolar material 1 protein (Homo sapiens), Q15154 D1962M | decreasing interaction strength |
| Pericentriolar material 1 protein (Homo sapiens), Q15154 D1962N | decreasing interaction strength |
| Pericentriolar material 1 protein (Homo sapiens), Q15154 D1962P | disrupting interaction strength |
| Pericentriolar material 1 protein (Homo sapiens), Q15154 D1962S | with no effect |
| Pericentriolar material 1 protein (Homo sapiens), Q15154 D1962V | disrupting interaction strength |
| Pericentriolar material 1 protein (Homo sapiens), Q15154 D1962W | with no effect |
| Pericentriolar material 1 protein (Homo sapiens), Q15154 D1962Y | disrupting interaction strength |

| Substance | effect of a mutation on the interaction |
| --- | --- |
| Pericentriolar material 1 protein (Homo sapiens), Q15154 D1968E | with no effect |
| Pericentriolar material 1 protein (Homo sapiens), Q15154 D1968F | with no effect |
| Pericentriolar material 1 protein (Homo sapiens), Q15154 D1968K | with no effect |
| Pericentriolar material 1 protein (Homo sapiens), Q15154 D1968L | with no effect |
| Pericentriolar material 1 protein (Homo sapiens), Q15154 D1968N | with no effect |
| Pericentriolar material 1 protein (Homo sapiens), Q15154 D1968Q | with no effect |
| Pericentriolar material 1 protein (Homo sapiens), Q15154 D1968S | with no effect |
| Pericentriolar material 1 protein (Homo sapiens), Q15154 D1968W | with no effect |
| Pericentriolar material 1 protein (Homo sapiens), Q15154 D1968Y | with no effect |
| Pericentriolar material 1 protein (Homo sapiens), Q15154 E1960A | with no effect |
| Pericentriolar material 1 protein (Homo sapiens), Q15154 E1960D | with no effect |
| Pericentriolar material 1 protein (Homo sapiens), Q15154 E1960F | with no effect |
| Pericentriolar material 1 protein (Homo sapiens), Q15154 E1960G | with no effect |
| Pericentriolar material 1 protein (Homo sapiens), Q15154 E1960K | decreasing interaction strength |
| Pericentriolar material 1 protein (Homo sapiens), Q15154 E1960M | decreasing interaction strength |
| Pericentriolar material 1 protein (Homo sapiens), Q15154 E1960N | with no effect |

Next, values leading:

| effect of a mutation on the interaction | Substance |
| --- | --- |
| with no effect | Pericentriolar material 1 protein (Homo sapiens), Q15154 D1959A |
| with no effect | Pericentriolar material 1 protein (Homo sapiens), Q15154 D1959C |
| with no effect | Pericentriolar material 1 protein (Homo sapiens), Q15154 D1959E |
| with no effect | Pericentriolar material 1 protein (Homo sapiens), Q15154 D1959H |
| with no effect | Pericentriolar material 1 protein (Homo sapiens), Q15154 D1959I |
| decreasing interaction strength | Pericentriolar material 1 protein (Homo sapiens), Q15154 D1959K |
| with no effect | Pericentriolar material 1 protein (Homo sapiens), Q15154 D1959M |
| with no effect | Pericentriolar material 1 protein (Homo sapiens), Q15154 D1959P |
| with no effect | Pericentriolar material 1 protein (Homo sapiens), Q15154 D1959Q |
| with no effect | Pericentriolar material 1 protein (Homo sapiens), Q15154 D1959R |
| with no effect | Pericentriolar material 1 protein (Homo sapiens), Q15154 D1959T |
| with no effect | Pericentriolar material 1 protein (Homo sapiens), Q15154 D1959W |
| with no effect | Pericentriolar material 1 protein (Homo sapiens), Q15154 D1962A |
| with no effect | Pericentriolar material 1 protein (Homo sapiens), Q15154 D1962C |
| with no effect | Pericentriolar material 1 protein (Homo sapiens), Q15154 D1962E |
| decreasing interaction strength | Pericentriolar material 1 protein (Homo sapiens), Q15154 D1962H |
| disrupting interaction strength | Pericentriolar material 1 protein (Homo sapiens), Q15154 D1962K |
| disrupting interaction strength | Pericentriolar material 1 protein (Homo sapiens), Q15154 D1962L |

| effect of a mutation on the interaction | Substance |
| --- | --- |
| decreasing interaction strength | Pericentriolar material 1 protein (Homo sapiens), Q15154 D1962Q |
| decreasing interaction strength | Pericentriolar material 1 protein (Homo sapiens), Q15154 D1962R |
| with no effect | Pericentriolar material 1 protein (Homo sapiens), Q15154 D1962T |
| with no effect | Pericentriolar material 1 protein (Homo sapiens), Q15154 D1968A |
| with no effect | Pericentriolar material 1 protein (Homo sapiens), Q15154 D1968C |
| with no effect | Pericentriolar material 1 protein (Homo sapiens), Q15154 D1968G |
| with no effect | Pericentriolar material 1 protein (Homo sapiens), Q15154 D1968H |
| with no effect | Pericentriolar material 1 protein (Homo sapiens), Q15154 D1968I |
| with no effect | Pericentriolar material 1 protein (Homo sapiens), Q15154 D1968M |
| with no effect | Pericentriolar material 1 protein (Homo sapiens), Q15154 D1968P |
| with no effect | Pericentriolar material 1 protein (Homo sapiens), Q15154 D1968R |
| with no effect | Pericentriolar material 1 protein (Homo sapiens), Q15154 D1968T |
| with no effect | Pericentriolar material 1 protein (Homo sapiens), Q15154 D1968V |
| with no effect | Pericentriolar material 1 protein (Homo sapiens), Q15154 E1960C |
| with no effect | Pericentriolar material 1 protein (Homo sapiens), Q15154 E1960H |
| with no effect | Pericentriolar material 1 protein (Homo sapiens), Q15154 E1960I |
| with no effect | Pericentriolar material 1 protein (Homo sapiens), Q15154 E1960L |
| with no effect | Pericentriolar material 1 protein (Homo sapiens), Q15154 E1960P |
